Columns and labels:
nucleolin (NCL) [1] = molecular target: T1, nucleolin (NCL) (Homo sapiens, UniProt P19338 1-710); experiment: SPR; 150 mM KCl; SPR: 10 mM HEPES, 150 mM KCl, 3 mM EDTA, pH 7.4, NCL on CM5 chip, temperature not stated; EMSA: 5x binding buffer listed as 40 mM Tris, 30 mM KCl, 1 mM MgCl2, 1 mM DTT, pH 8.0, 200 nM probe, room temperature 25 min, gel with 20 mM KCl at 4 C; details: protein: recombinant, parallel G4
nucleolin (NCL) [2] = molecular target: T1, nucleolin (NCL); experiment: SPR; up to 2 uM aptamer; SPR: 10 mM HEPES, 150 mM KCl, 3 mM EDTA, pH 7.4, NCL on CM5 chip, temperature not stated; EMSA: 5x binding buffer listed as 40 mM Tris, 30 mM KCl, 1 mM MgCl2, 1 mM DTT, pH 8.0, 200 nM probe, room temperature 25 min, gel with 20 mM KCl at 4 C; details: protein: recombinant; no G4
nucleolin (NCL) [3] = molecular target: T1, nucleolin (NCL); experiment: EMSA; K+; SPR: 10 mM HEPES, 150 mM KCl, 3 mM EDTA, pH 7.4, NCL on CM5 chip, temperature not stated; EMSA: 5x binding buffer listed as 40 mM Tris, 30 mM KCl, 1 mM MgCl2, 1 mM DTT, pH 8.0, 200 nM probe, room temperature 25 min, gel with 20 mM KCl at 4 C; details: protein: recombinant; label: 5'-FAM; parallel G4

T1 sequence (P19338 whole entry): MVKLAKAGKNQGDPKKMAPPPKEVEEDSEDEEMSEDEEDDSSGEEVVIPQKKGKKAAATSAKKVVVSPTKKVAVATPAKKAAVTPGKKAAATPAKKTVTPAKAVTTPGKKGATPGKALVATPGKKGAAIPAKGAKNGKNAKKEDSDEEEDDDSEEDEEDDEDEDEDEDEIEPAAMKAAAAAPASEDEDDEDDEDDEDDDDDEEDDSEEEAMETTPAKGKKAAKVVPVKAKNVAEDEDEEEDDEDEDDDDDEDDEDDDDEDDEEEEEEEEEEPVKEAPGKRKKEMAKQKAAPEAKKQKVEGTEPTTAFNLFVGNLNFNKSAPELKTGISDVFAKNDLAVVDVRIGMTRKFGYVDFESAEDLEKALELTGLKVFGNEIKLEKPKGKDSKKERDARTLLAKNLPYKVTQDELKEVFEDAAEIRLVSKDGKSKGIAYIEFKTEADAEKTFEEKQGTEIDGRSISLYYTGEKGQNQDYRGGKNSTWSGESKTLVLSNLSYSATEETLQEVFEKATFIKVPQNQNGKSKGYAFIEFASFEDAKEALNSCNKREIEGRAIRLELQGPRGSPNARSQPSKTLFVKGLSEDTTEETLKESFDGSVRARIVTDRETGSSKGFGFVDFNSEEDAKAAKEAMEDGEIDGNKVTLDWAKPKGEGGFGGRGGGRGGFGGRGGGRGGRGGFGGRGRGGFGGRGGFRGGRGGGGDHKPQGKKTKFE

B1: Apt-3 (structured_RNA)
RNA: GUUAGGGUUUAUGGGAUUG
- Kd (nucleolin (NCL) [1]): 20.4 nM

B2: Apt-3 mutant (ssRNA)
RNA: GUUAGAGUUUAUGAGAUUG
- binding result (nucleolin (NCL) [2]): no binding

B3: Apt-3-F (structured_RNA)
RNA: GUUAGGGUUUAUGGGAUUG
- Kd (nucleolin (NCL) [3]): 77.1 nM
- Kd (nucleolin (NCL) [1]; label: 5'-FAM): 24.9 nM
